Experiment [1] deals with C46 protein (membrane anchored fusion inhibitor derived from the C-terminal heptad repeat of HIV gp41 fused with a human immunoglobulin hinge region and a CD34 transmembrane domain) (HIV gp41 heptad repeat fused to human immunoglobulin hinge and CD34 transmembrane domain). The experiment is described as follows: flow cytometry, 2F5 staining of Molt4/CCR5 cells transduced with the C46 lentiviral construct (untransduced background 344.6). For orientation: Flow cytometry measures light scatter and fluorescence of single cells or particles in a stream.

The target is the same in experiment [2]. The experiment is described as follows: flow cytometry, 2F5 staining of Molt4/CCR5 cells transduced with the sh5/C46 lentiviral construct (untransduced background 344.6).

Consider 2F5 antibody, for which the MFI in experiment [1] amounted to 1450; in experiment [2], 1170.

These data come from patent US20120201794A1.
